How the values were obtained:
[1] = target: T1, GST-NP.d1 (NPAC residues 1-150, PWWP domain)
T1 chain: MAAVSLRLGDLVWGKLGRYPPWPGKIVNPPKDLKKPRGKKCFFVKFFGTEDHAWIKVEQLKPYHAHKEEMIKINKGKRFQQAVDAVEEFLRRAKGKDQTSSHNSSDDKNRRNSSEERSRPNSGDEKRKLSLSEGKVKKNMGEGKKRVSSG

[2] = target: T2, GST-NP.d8 (NPAC residues 188-252)
T2 chain: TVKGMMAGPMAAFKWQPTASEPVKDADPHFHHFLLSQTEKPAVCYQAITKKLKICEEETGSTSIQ

[3] = target: T3, GST-NP.d2 (NPAC residues 1-252)
T3 chain: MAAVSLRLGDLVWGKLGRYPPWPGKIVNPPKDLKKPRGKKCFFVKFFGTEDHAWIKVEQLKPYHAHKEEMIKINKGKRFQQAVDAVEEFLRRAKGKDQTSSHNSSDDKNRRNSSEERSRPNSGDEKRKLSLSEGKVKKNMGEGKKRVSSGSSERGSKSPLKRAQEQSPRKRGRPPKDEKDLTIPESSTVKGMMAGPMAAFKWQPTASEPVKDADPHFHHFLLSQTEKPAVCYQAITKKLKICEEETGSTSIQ

[4] = target: T4, GST-NP.d7 (NPAC residues 152-186, containing the AT hook motif)
T4 chain: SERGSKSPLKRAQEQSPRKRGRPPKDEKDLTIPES

[5] = target: T5, GST-NP.d9 (NP.d3, NPAC residues 152-252, with deletion of amino acids 214-222)
T5 chain: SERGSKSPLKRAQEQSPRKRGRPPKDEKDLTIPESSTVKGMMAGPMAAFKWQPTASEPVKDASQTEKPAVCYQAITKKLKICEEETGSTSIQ

[6] = target: T6, GST-NP.d5 (NPAC residues 262-553, dehydrogenase domain)
T6 chain: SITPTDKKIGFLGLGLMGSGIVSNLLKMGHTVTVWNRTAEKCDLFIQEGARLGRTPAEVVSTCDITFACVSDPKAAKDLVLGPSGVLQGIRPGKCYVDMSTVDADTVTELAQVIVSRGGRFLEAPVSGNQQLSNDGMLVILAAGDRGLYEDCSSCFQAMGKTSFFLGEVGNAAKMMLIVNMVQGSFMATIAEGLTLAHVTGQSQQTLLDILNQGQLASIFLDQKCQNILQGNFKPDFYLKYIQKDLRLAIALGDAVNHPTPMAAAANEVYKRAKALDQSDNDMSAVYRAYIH

[7] = target: T7, GST-NP.d6 (NPAC with deletion of the linker region, residues 152-252)
T7 chain: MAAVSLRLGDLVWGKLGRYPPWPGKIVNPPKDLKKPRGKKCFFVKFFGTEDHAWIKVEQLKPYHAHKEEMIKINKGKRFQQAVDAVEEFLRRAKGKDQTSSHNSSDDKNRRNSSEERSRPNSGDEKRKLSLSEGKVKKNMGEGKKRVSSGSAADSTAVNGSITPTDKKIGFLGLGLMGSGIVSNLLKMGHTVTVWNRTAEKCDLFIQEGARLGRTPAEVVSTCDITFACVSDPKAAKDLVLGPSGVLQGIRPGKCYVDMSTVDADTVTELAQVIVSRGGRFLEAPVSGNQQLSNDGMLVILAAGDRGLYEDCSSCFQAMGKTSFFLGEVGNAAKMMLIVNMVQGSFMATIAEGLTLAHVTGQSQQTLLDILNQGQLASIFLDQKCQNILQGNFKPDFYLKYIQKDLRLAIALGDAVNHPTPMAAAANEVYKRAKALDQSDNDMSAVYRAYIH

[8] = target: T8, GST-NP.d3 (NPAC residues 152-252, linker region)
T8 chain: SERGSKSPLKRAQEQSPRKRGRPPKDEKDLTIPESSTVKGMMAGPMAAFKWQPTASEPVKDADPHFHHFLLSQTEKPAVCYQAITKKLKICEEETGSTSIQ

[9] = target: T9, GST-NP.d4 (NPAC residues 152-553)
T9 chain: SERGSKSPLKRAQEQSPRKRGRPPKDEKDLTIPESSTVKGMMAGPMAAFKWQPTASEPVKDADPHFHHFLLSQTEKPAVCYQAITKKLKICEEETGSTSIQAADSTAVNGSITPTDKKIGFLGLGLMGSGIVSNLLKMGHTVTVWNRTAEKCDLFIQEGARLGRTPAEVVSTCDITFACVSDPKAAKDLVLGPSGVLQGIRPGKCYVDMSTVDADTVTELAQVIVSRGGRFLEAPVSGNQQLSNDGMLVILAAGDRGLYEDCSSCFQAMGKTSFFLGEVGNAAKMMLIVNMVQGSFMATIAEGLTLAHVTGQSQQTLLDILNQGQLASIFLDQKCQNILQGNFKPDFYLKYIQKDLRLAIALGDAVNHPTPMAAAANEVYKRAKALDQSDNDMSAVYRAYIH

B1: Recombinant 6x his tagged full-length LSD2 (protein)
chain: HHHHHHMATPRGRTKKKASFDHSPDSLPLRSSGRQAKKKATETTDEDEDGGSEKKYRKCEKAGCTATCPVCFASASERCAKNGYTSRWYHLSCGEHFCNECFDHYYRSHKDGYDKYTTWKKIWTSNGKTEPSPKAFMADQQLPYWVQCTKPECRKWRQLTKEIQLTPQIAKTYRCGMKPNTAIKPETSDHCSLPEDLRVLEVSNHWWYSMLILPPLLKDSVAAPLLSAYYPDCVGMSPSCTSTNRAAATGNASPGKLEHSKAALSVHVPGMNRYFQPFYQPNECGKALCVRPDVMELDELYEFPEYSRDPTMYLALRNLILALWYTNCKEALTPQKCIPHIIVRGLVRIRCVQEVERILYFMTRKGLINTGVLSVGADQYLLPKDYHNKSVIIIGAGPAGLAAARQLHNFGIKVTVLEAKDRIGGRVWDDKSFKGVTVGRGAQIVNGCINNPVALMCEQLGISMHKFGERCDLIQEGGRITDPTIDKRMDFHFNALLDVVSEWRKDKTQLQDVPLGEKIEEIYKAFIKESGIQFSELEGQVLQFHLSNLEYACGSNLHQVSARSWDHNEFFAQFAGDHTLLTPGYSVIIEKLAEGLDIQLKSPVQCIDYSGDEVQVTTTDGTGYSAQKVLVTVPLALLQKGAIQFNPPLSEKKMKAINSLGAGIIEKIALQFPYRFWDSKVQGADFFGHVPPSASKRGLFAVFYDMDPQKKHSVLMSVIAGEAVASVRTLDDKQVLQQCMATLRELFKEQEVPDPTKYFVTRWSTDPWIQMAYSFVKTGGSGEAYDIIAEDIQGTVFFAGEATNRHFPQTVTGAYLSGVREASKIAAF
LSD2 activity on nucleosome substrates (nucleosome demethylation assay, immunoblot) [1]: Neither the PWWP domain (SEQ ID NO: 63) (NP.d1, residues 1-150) nor the dehydrogenase domain (NP.d5, residues 262-553) stimulated LSD2 | LSD2 histone demethylase activity on nucleosomal substrates [2]: NP.d8, but not NP.d7 or NP.d9, significantly enhances LSD2 histone demethylase activity on nucleosomal substrates | LSD2 activity on nucleosome substrates (nucleosome demethylation assay, immunoblot) [3]: significantly enhance LSD2 demethylase activity | LSD2 histone demethylase activity on nucleosomal substrates [4]: NP.d8, but not NP.d7 or NP.d9, significantly enhances LSD2 histone demethylase activity on nucleosomal substrates | LSD2 histone demethylase activity on nucleosomal substrates [5]: NP.d8, but not NP.d7 or NP.d9, significantly enhances LSD2 histone demethylase activity on nucleosomal substrates | LSD2 activity on nucleosome substrates (nucleosome demethylation assay, immunoblot) [6]: Neither the PWWP domain (SEQ ID NO: 63) (NP.d1, residues 1-150) nor the dehydrogenase domain (NP.d5, residues 262-553) stimulated LSD2 | LSD2 activity on nucleosome substrates (nucleosome demethylation assay, immunoblot) [7]: deletion of the linker region (residues 152-252) abolishes cofactor activity (NP.d6, lane 10) | LSD2 activity on nucleosome substrates (nucleosome demethylation assay, immunoblot) [8]: significantly enhance LSD2 demethylase activity | LSD2 activity on nucleosome substrates (nucleosome demethylation assay, immunoblot) [9]: significantly enhance LSD2 demethylase activity

Source: patent publication US20150329644
